These results are taken from patent US20100069462A1 (JICHI MEDICAL UNIVERSITY, published 2010).

The assay addresses T1, PHB2-FLAG (human PHB2 protein with a FLAG tag fused to the carboxyl terminus) (human, UniProt O35129 1-299 (mouse entry)).
T1 construct: Expressed in HeLa cells; immunoprecipitated with an anti-FLAG antibody from purified mitochondrial fractions; also called prohibitin 2; not shown: FLAG tag at the C-terminus
The assay is described as follows: immunoprecipitation and mass spectrometry on purified HeLa mitochondrial fractions (summary of Example 3). The protocol: First, immunoprecipitation (IP) analysis and mass spectrometry (MASS analysis) were conducted using purified mitochondrial fractions derived from HeLa cells expressing PHB2-FLAG, which had been prepared in Example 1.
In IP analysis, an immunoprecipitation method was performed using an anti-FLAG antibody, the precipitates were subjected to 12% SDS-PAGE, protein staining was performed, and then proteins that had been co-precipitated with the PHB2-FLAG protein were detected.

T1 sequence (O35129 whole entry, the tested form may be a part): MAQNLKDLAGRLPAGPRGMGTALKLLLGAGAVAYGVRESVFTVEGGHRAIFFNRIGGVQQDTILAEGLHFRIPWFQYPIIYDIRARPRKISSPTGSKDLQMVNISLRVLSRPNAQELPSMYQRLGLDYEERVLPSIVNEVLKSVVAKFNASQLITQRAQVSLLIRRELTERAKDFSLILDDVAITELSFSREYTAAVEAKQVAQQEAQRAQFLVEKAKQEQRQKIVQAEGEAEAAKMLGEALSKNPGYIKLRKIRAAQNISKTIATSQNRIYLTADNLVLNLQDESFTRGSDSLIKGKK

B1: PHB1 protein (other, human, UniProt P35232 2-272, looked up)
chain: AAKVFESIGKFGLALAVAGGVVNSALYNVDAGHRAVIFDRFRGVQDIVVGEGTHFLIPWVQKPIIFDCRSRPRNVPVITGSKDLQNVNITLRILFRPVASQLPRIFTSIGEDYDERVLPSITTEILKSVVARFDAGELITQRELVSRQVSDDLTERAATFGLILDDVSLTHLTFGKEFTEAVEAKQVAQQEAERARFVVEKAEQQKKAAIISAEGDSKAAELIANSLATAGDGLIELRKLEAAEDIAYQLSRSRNITYLPAGQSVLLQLPQ
notes: Endogenous protein co-precipitated from HeLa mitochondrial fractions; also called prohibitin
For the molecule B1, the binding result is listed as “binds”.
